From the supplement of paper PMC9732359
± gives the uncertainty stated by the source.

Assay: protein stability index of a GFP-peptide fusion (yeast GPS) (PSI 1-4); higher = more stable; sorted into four equal gates, so the index is relative within each strain
Outline: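 Plasmids in a pooled yeast library fused tiled 17-residue yeast protein peptides downstream of GFP and also expressed Cherry. Mid-log cultures grown without leucine were sorted into four equal gates by GFP/Cherry fluorescence ratio. Each gate's plasmids were PCR-amplified and Illumina-sequenced, and reads were matched to strains by barcodes. The protein stability index is derived by multiplying each gate's read frequency by its gate number and summing the results.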

Sequence	protein stability index (doa10∆)	protein stability index (pdr5∆)	protein stability index (san1∆)	protein stability index (ubr1∆)
PVMADLNGGLQFVPELK [FAS2]	1.78 ± 0.069	2.19 ± 0.076	2.07 ± 0.077	2.01 ± 0.056
TSPGYSPGSPAYSPKQD [RPO21]	2.31 ± 0.087	2.1 ± 0.063	2.39 ± 0.11	1.77 ± 0.05
TQTGLLQDLEEAKSFQD [RPC82]	2.27 ± 0.25	2.46 ± 0.12	2.13 ± 0.14	2.59 ± 0.11
GVAASQGSMSERPPYIL [SIR2]	2.75 ± 0.11	3.08 ± 0.089	2.72 ± 0.097	3.16 ± 0.085
TDLEKKHLWDQKSLAAL [RPC17]	2.86 ± 0.11	2.98 ± 0.062	2.94 ± 0.081	3.02 ± 0.059
REVGTKFTTVLAKILAR [ECM29]	1.39 ± 0.086	1.52 ± 0.06	1.88 ± 0.097	1.44 ± 0.05
IRGIVKQIVHDSGRGAP [RPL2A]	1.76 ± 0.07	1.88 ± 0.065	2.79 ± 0.047	2.12 ± 0.07
EDIIANYASVYPVVEVE [RRP43]	2.47 ± 0.098	2.77 ± 0.092	2.85 ± 0.14	2.72 ± 0.079
TTSYIKEQENITIQDLL [DPB4]	3.09 ± 0.19	2.83 ± 0.17	2.86 ± 0.082	3.02 ± 0.27
VSIRQNQYKLVFYQVTP [RPL22B]	1.95 ± 0.087	1.69 ± 0.051	2.15 ± 0.06	1.88 ± 0.064
NSSMRYGYWFDCRMGNF [AAR2]	–	–	1.83 ± 0.12	–
KTSEKSENHTESDAPPK [YOR098C/NUP1]	2.52 ± 0.13	2.75 ± 0.13	2.53 ± 0.15	2.28 ± 0.21
IKNVIVSNRVAAPARAG [RPP0]	1.82 ± 0.13	2.44 ± 0.11	3 ± 0.14	1.96 ± 0.22
VTRKQEDARRNPNPSSQ [RPC37]	3.33 ± 0.087	3.44 ± 0.094	3.19 ± 0.081	3.54 ± 0.061
QGKPYISLPKGKGIKLS [RPS4A]	3.29 ± 0.07	3.33 ± 0.081	2.84 ± 0.06	2.45 ± 0.073
TDIKDTLTKISMLFKTS [MCD1]	2.87 ± 0.15	2.88 ± 0.27	2.37 ± 0.18	–
HGNLASCHGHFGHLKLA [RPO31]	1.48 ± 0.06	1.45 ± 0.061	1.14 ± 0.1	1.2 ± 0.033
LLAEEEELILPNTKDAM [PRP8]	3.16 ± 0.089	3.44 ± 0.072	3.36 ± 0.063	3.04 ± 0.079
MIFWNDICQIDTNAPVA [SRB8]	2.4 ± 0.063	1.8 ± 0.052	2.12 ± 0.093	2.02 ± 0.051
VITNLFSAIPFVGNDIV [COB]	3.14 ± 0.05	3.12 ± 0.053	3.14 ± 0.034	3.13 ± 0.036
FLQKFEIAFHLTLIFYD [YML103C/NUP188]	1.49 ± 0.083	1.46 ± 0.044	1.41 ± 0.12	1.35 ± 0.052
LEERFDPKSPTKRSIAI [YMR129W/POM152]	2.94 ± 0.055	3.14 ± 0.055	2.9 ± 0.037	3.02 ± 0.034
YGDRMKLAKNLQIGDVV [RPO31]	2.94 ± 0.13	3.49 ± 0.21	3.34 ± 0.1	3.57 ± 0.21
FSFGKPFFSSNTSSLQS [YIL149C/MLP2]	2.95 ± 0.054	3.07 ± 0.052	2.86 ± 0.046	2.926 ± 0.028
WQVIITDDQGRVIDDNN [SIR3]	3.49 ± 0.11	3.43 ± 0.1	3.31 ± 0.08	3.52 ± 0.073
LQLLPLQKAVRGHVLQF [SNF2]	1.22 ± 0.029	1.29 ± 0.041	1.23 ± 0.081	1.16 ± 0.026

Sequence	protein stability index (doa10∆)	protein stability index (pdr5∆)	protein stability index (san1∆)	protein stability index (ubr1∆)
RSTRIRTKSQVIEEDYD [IRR1]	2.89 ± 0.15	3.22 ± 0.082	3.42 ± 0.078	3.43 ± 0.11
IVDTSGRHHQEEELFQE [SRP54]	3.31 ± 0.07	3.13 ± 0.043	3.07 ± 0.056	3.24 ± 0.053
NELLDLTESQTETYISD [RPN5]	3.17 ± 0.073	3.35 ± 0.069	3.12 ± 0.046	3.21 ± 0.069
VFIFPTSNWEIYKPLLF [SRB8]	2.15 ± 0.06	2.6 ± 0.083	2.84 ± 0.062	2.74 ± 0.056
MKYDIFAKFIHHIHHFE [IRR1]	2.03 ± 0.079	2.54 ± 0.055	2.46 ± 0.065	2.74 ± 0.05
SNNDEDDKDCTIKISTN [RGR1]	2.94 ± 0.063	3.13 ± 0.062	2.89 ± 0.054	3 ± 0.054
QKESDAKNETNSESDSK [ITC1]	2.94 ± 0.044	3.03 ± 0.046	3.02 ± 0.045	2.85 ± 0.043
VGKVMNKNQETAISVAK [RPT6]	–	3.55 ± 0.21	3.23 ± 0.082	3.4 ± 0.11
DDLQSSVIPEVDREAML [YCG1]	2.63 ± 0.085	2.71 ± 0.081	2.48 ± 0.12	2.4 ± 0.078
NNLHELWALLNFLLPDI [ISW2]	2.59 ± 0.052	2.07 ± 0.049	1.89 ± 0.07	2.63 ± 0.041
YLKNVLFAFNGVARNFH [SIN4]	2.55 ± 0.082	2 ± 0.056	1.79 ± 0.064	2.15 ± 0.063
VRATFRNNLPAKTFGAS [RPL33A]	2.85 ± 0.097	3.05 ± 0.16	3.2 ± 0.11	3.31 ± 0.098
YKVLKNNGLPECQVIAA [YCG1]	1.42 ± 0.09	2.1 ± 0.14	1.35 ± 0.16	1.95 ± 0.062
YYKKFLIEPLPTESYLQ [BRR2]	1.85 ± 0.055	2.58 ± 0.066	1.78 ± 0.13	2.48 ± 0.055
LSKEVPFSYLIDETMMD [SRB5]	2.03 ± 0.12	2.36 ± 0.066	2.22 ± 0.13	2.55 ± 0.048
VDDVLETISAIEHPMTS [RPN1]	3.15 ± 0.13	3.2 ± 0.091	2.79 ± 0.16	2.91 ± 0.083
TEDIREGDQAEVIFSFE [YMR129W/POM152]	3.47 ± 0.087	3.39 ± 0.072	3.19 ± 0.066	3.44 ± 0.071
IFEKELMYQIKKECALL [SRB4]	2.87 ± 0.28	3.2 ± 0.21	2.61 ± 0.26	3.44 ± 0.19
EECSGRRWNKLCTLNDS [YGL100W/SEH1]	2.99 ± 0.051	3.17 ± 0.053	2.82 ± 0.05	2.78 ± 0.041
TVDGRLYQLFKTCIQGI [YJL039C/NUP192]	2.86 ± 0.16	2.98 ± 0.23	3.03 ± 0.11	–
SGIVASPAVKKLLQLAG [RPS2]	1.56 ± 0.12	1.66 ± 0.14	–	–
MKANPALYVLRERIRKG [PRP8]	2.47 ± 0.23	2.87 ± 0.11	2.66 ± 0.12	2.41 ± 0.29
DWIRFVSIRQNQYKLVF [RPL22B]	1.37 ± 0.076	1.48 ± 0.041	1.26 ± 0.1	1.26 ± 0.055
TQTEELKFMAASEVATH [PRP8]	2.38 ± 0.084	2.48 ± 0.08	2.35 ± 0.081	2.66 ± 0.066
NNGVSNLWKNIFLSKEN [COR1]	2.98 ± 0.082	2.9 ± 0.059	2.67 ± 0.089	2.4 ± 0.058
TSTNPNGLGTSHINTNV [ARP7]	3.14 ± 0.068	3.28 ± 0.061	2.96 ± 0.061	3.33 ± 0.057
